Reference: a protein production outcome set (Wang et al. 2014)

Assay: label from the status in PepcDB records

Question: For “MASLVAYDDSDPESEADPARSGDAAGQMSDVSGISRPEVEFASSTGVTKEGAQHTGNSPYEDPGKQRLPLARLWRSDPGSCPSQRLQWPSKEPDSTFPTSEPPGPSLWMNRAPVGHVPLAAACFKPLKPAWDAFTPSHTHSKLESTAGNASSSQRKRGEACVLPYIPKRLRQLQVLNPEATGGRDVEPPGSPAGCAPAPLCVAPTVSEFIQPYLNSQYRETTVPKKVLFHLRGHRGPVNSIQWCPVFSKSHMLLSASMDKTFKVWNAVDSGHCLQTYSVHSEAVRAARWSPCGRRILSGGFDFALHLTDLETGTQVFSGHSDFRVTTLKFHPKDHNVFLCGGFSSEIKAWDMRTGKVVKGYKATIQQTLDILFLQEGSEFLSSTDASTRDSADRTIIAWDFRTAAKISNQIFHERYTCPSLALHPREPVFLAQTNGNYLALFSSVWPYRMSRRRRYEGHKVEGYAVGCECSPCGDLLVTGSADGRVLMFSFRTASRACTLQGHTQACLGTTYHPVLPSVLGTCSWGGDIKIWH”, which protein production is on record?
Answer: failed

Question: For “MPVRVSLELLRVGHCRHCERMVRADGHWHAVEFPALSVLIRHPQRGALLYDTGYAAHFFRATDAWPERLYRLTTPVRLPAHETLGAQLSKRGVALDDIAWCLISHFHADHVGGLRDLPNARFMCSRADHQQLRSCSRVGGLRRALLPQLLPDDFDQRLQFADQAPQRALTGAWQGLGPAYDLFEDGSVLAVSLPGHVPGQMGLRVRDQHDREVLLCADAVWSSATWATLQWPAWPTRLLMHDWHAFQRTVHRLHALSHAHPELAILPSHCQPSLDRYQPEWR”, which protein production is on record?
Answer: failed

Question: For “MLLLHWDNMGKIELHHVFVMLSCIYLIFSDISINSAVVFLFSSIFFYISFTAGKRLYYLIGIDKENLKINLKKHYNFGIFLMIVGLIAVTSDLIWVKDVPLFNPLSRKFLNVYFTTLSHLFLVGWAIVVASSNIDKKKILLYTIIFSILIMLLGYRTNVLVLLISVGAILYYKNKISNREILKYGILVFVILLGLSILRLYALGVEGNPITSRISLTMSIYDIIFNNFNGVFNGYIHYSAVFSYLGLCNGARTVIAKTLGIYNVSITPTIVGAVIGDYGTLAIIPYFGILGIFLGFFYKLAKDVKGIYLGIYGILFAYTLIGIESGILDIDVILYYFFGLILCIYAILLRKLKR”, which protein production is on record?
Answer: failed

Question: Which protein production does the source give for “SDSPEQESADDALKRIVDGFQHFRREVFPEQQALFKKLANSQRPRAMFITCADSRIVPELITQSSPGDLFVTRNVGNVVPPYGQMNGGVSTAIEYAVLALGVHHIIVCGHSDCGAMRAVLDPQTLERMPTVKAWLRHAEVARTVVADNCDCGASHDTLGVLTEENVVAQLDHLRTHPSVASRLASGQLFIHGWVYDIESAQIRAYDAKQGRFLPLDGEHPVPMATPAPRYLSS” here?
Answer: failed

Question: For “MPSEVTEEFIIIIAVVLIGLVLFGFVTSYFIPHEIFSLAQQQASSISSSTTVSVGPLIFNSGSASTVIEAYNPAISGNITLIVFPEPSYLQQDVGLVTPQSPPQFSVYLSNEKLAKSFTISIPIYDVNGRIIYDSQITAYTVPFNTPVTITVNGVGGSNYILIVWVLYNSNGYWFRIGYTFTGVPST”, which protein production is on record?
Answer: failed

Question: For “MPIKKPCLKLNLDSLNVVRSEIPQMLSANERLKNNFNILYNQIRQYPAYYFKVASNVPTYSDICQSFSVMYQGFQIVNHSGDVFIHACRENPQSKGDFVGDKFHISIAREQVPLAFQILSGLLFSEDSPIDKWKITDMNRVSQQSRVGIGAQFTLYVKSDQECSQYSALLLHKIRQFIMCLESNLLRSKIAPGEYPASDVRPEDWKYVSYRNELRSDRDGSERQEQMLREEPFYRLMIE”, which protein production is on record?
Answer: failed

Question: For “MEKDKKTTAKIYPFYPNGQFYFERGVEAFREQRIKEAIRYLVRASELEPGEPVILCQLAICYTEIGQFHKSNQLLREIMEKRLGNMEYCYYFIANNFAYMKDYRRALQYASRYLEIAADGDYAEEAKDLIEVLLEETPFGETIENGFSKLEQEFYSYKKEINRYLAEEDSASACDILKKVIDEKPNFWPAYNQLAALYFEQLKEEEGVKVLSDLIARNPGNLLGLCDLFIYHFYKGNREEADSLYSELRDVLPVLSHHKEKIGLIHAMMGDYEEADDLLEQVADLEVTERSKYYYYRAKSAYYLDEVEEAKMFWHSFLECDLYEDTRFPWEQEADLTNDTRLVLEMLQAESDMTHLLGVYAMTVSGNRPEFVLFHPLLDMSSWSYMEHLMFTDFDYFPDGNVEQNCYLIMKAMTILRENGLLLNEENLPLYETIFSLVLMENRKELILGRYTIETVASAIAKIFLPEMKLASVDEFECSKCARDIEQFLSR”, which protein production is on record?
Answer: failed

Question: With “MSELVINNNIVNDLLIKQFTNYVFMMIVTDIKGNIIYANKKYCQFNHINFESIKNKRYNLFYLVDENQDVFSNISDNKEVIRLEAKNPNKNKQEVWEDINIVPIFDKNNLISHYAFLSLDITD” as the sequence, how does the protein production read?
Answer: failed

Question: With “SLKKIVESTTFPRTKQSITEDLKALGLKKGMTVLVHSSLSSIGWVNGGAVAVIQALIDVVTEEGTIVMPSQSVELSDPKEWGNPPVPEEWWDIIRESMPAYNSNYTPTTRGMGQIVELFRSYPEVKRSNHPNYSFVAWGKHKNKILNQHPLEFGLGEQSPLGKLYIRESYVLLLGADFDSSTCFHLAEYRIPYQKIINRGAPIIVEGKRVWKEYKELEFREELFQEVGQAFEAEHNMKVGKVGSANCRLFSLTEAVDFAEKWFINNDSKNIKK” as the sequence, how does the protein production read?
Answer: not failed

Question: Which protein production does the source give for “MKTKAKISSRWLRFRALLIDIFLIYIPILYLFYFLLGSKEAFLNNHFITTLCTFLFGLIQAIFLTKKAQSPGLKAYDLYLIDIKTGKKLSFLRILLRYVIFIISFGLLFGLFVSFVRKDRLNLHDILTQSCIATKSIKKG” here?
Answer: failed

Question: With “MDELRELLKGEQQGIKILKEVLKKAKEGDEQELARLNQEIVKGEKQGVKVYKEAAEKARNPEKRQVIDKILEDEEKHIEWHKAASKQGNAEQFASLVQQHLQDEQRHVEEIEKKNLEHHHHHH” as the sequence, how does the protein production read?
Answer: not failed

Question: Which protein production does the source give for “RTDVIVVGVLDWKKGNLSFVSIPRDLMIEGKKINAIYNTYGMEKLFQIIESLLGQKPDSYVIFNYEAFKILVDELGPIEVIPNEVMFYEDLSQNLVIDFKPGVPYKLNGEQLLAYIRYRKDSMGDLARIERQKDVLKKLLSKALS” here?
Answer: failed

Question: For “MNGRRERAQGTEWAGDPAGCGTMERMPSALPDGEPVPADGALPASALAGAADRPLGFYLHVPYCATRCGYCDFNTYTATELRGTGGVLASRDNYADTLVDEVRLARKVLGDDPREVRTVFVGGGTPTLLAAGDLVRMLGAIRDEFGLAPDAEITTEANPESVDPAYLATLRAGGFNRISFGMQSAKQHVLKILDRTHTPGRPEACVAEARAAGFDHVNLDLIYGTPGESDDDWRASLDAALGAGPDHVSAYALIVEEGTQLARRIRRGEVPMTDDDVHADRYLIAEEALSAAGYDWYEVSNWATSDAGRCLHNELYWRGADWWGAGPGAHSHVGGVRWWNVKHPGAYAGALAAGKSPGAGREILTDEDRRVERILLELRLREGVPLSLLREAGLAASRRALSEGLLQEGPYEAGSAVLTLRGRLLADAVVRDLVD”, which protein production is on record?
Answer: failed

Question: For “MISSLKLTEMCTHCGFCLETCPTYVVTRNEVHSPRGRIEAVRIGINSTGFETCMYCRLCETACPAGVKYAQIITPVRKSSLKKTVMEKMLENPKLLAKSLKLLSKANSYPEVQRFVKFVKPNEVSEPLETDGEGDIILFPGCIESVIFRKTVEKAYKYLGKKYKVKIINGCCGLAHISNGNYEGAKKLAIRLAEKVKGKKVITLQSNCAAFMKEYKEWFGIEINAYDFAEFLIKEGIELPKVNDTFTVHYPCHAYRQKLVSHIRNVAEKMGIKIREMEDPHFECGAGGDYWLSHPKLSDMVMNVKRGKIAKSEAKKVIVTNSVCALAIRSMGYDVYHIADLLDT”, which protein production is on record?
Answer: failed

Question: Which protein production does the source give for “MSVEPTSVDPSPDKSAPANASGRADASARPSTGESARPSGGETPEVLRPHAEVTFAAELAALAAQDDRPRPVRWRLSPWAVATYLLGGTLPDGTVITPKYVGPRRIVEVAVTTLATDRALLLLGVPGTAKTWVSEHLAAAVSGDSTLLVQGTAGTPEEAIRYGWNYAQLLAHGPSRDALVPSPVMRAMADGMTARVEELTRVPADVQDTLITILSEKTLPIPELGQEVQAVRGFNLIATANDRDRGVNELSSALRRRFNTVVLPLPESADAEVDIVSRRVDQIGRSLDLPAVPDGVDEIRRVVTVFRELRDGVTTDGRTKLKSPSGTLSTAEAISVVTNGLALAAHFGDGVLRASDVAAGILGAVVRDPAADRVIWQEYLEAVVRERDGWMDFYRACREVSALEHHHHHH” here?
Answer: not failed

Question: Which protein production does the source give for “IDPVMVAAFEGWNDAGDAASTAVAHLDREWKGEVFAALDAEDYYDFQVNRPTVWLDGGVRKITWPTTRLSVVRVGGEKPRDLVLVRGIEPSMRWRSFCNELLAFAHELGVELVVVLGALLGDTPHTRPVPVSGVTSDPDLARTMDLEETKYEGPTGIVGILQEACTHAGVPAVSLWAAVPHYVSQPPNPKATLALLNRLEDLIDVRIPLGELPEDARAWQVGVDQLAAEDSEVAEYVQSLEEARDTA” here?
Answer: not failed
